The record followed here is patent publication US20210147877A1.

What all share (experiment): cell-based or functional assay
Test [1] concerns the target haploid virus AAV2/8 3:1 (AAV serotype 2; AAV serotype 8) (UniProt P03135).
The target in test [2] is haploid virus AAV2/8 1:3 (AAV serotype 2; AAV serotype 8) (UniProt P03135).
Test [3] deals with AAV2 vector (parental AAV2 capsid) (AAV serotype 2) (UniProt P03135).
In test [4] the target is haploid virus AAV2/8 1:1 (AAV serotype 2; AAV serotype 8) (UniProt P03135).
The target of test [5] is AAV8 vector (parental AAV8 capsid) (AAV serotype 8).

For the substance monoclonal antibody A20, the Neutralization antibody titer in test [1] is 2048 titer; in test [2] it was under 2 titer; in test [3] it was 512 titer; in test [4], 32 titer; in test [5], under 2 titer.

Consider monoclonal antibody ADK8, for which the Neutralization antibody titer is 512 titer in test [1]; 1024 titer in test [2]; under 2 titer in test [3]; 512 titer in test [4]; 1024 titer in test [5].
